Assay results from publication PMC10528150, “Mutant Cytochrome C as a Potential Detector of Superoxide Generation: Effect of Mutations on the Function and Properties” (Cells, 2023).

B1: cytochrome c wild type (recombinant horse heart CytC) (natural protein)
chain: not shown
modifications: heme c (hemoporphyrin type c, Fe ligated by His18 and Met80)
B2: cytochrome c with substitutions K8E/K27E/E62K/E69K/K72E/K86E/K87E/E90K (natural protein)
chain: not shown
modifications: heme c (hemoporphyrin type c)

Target: cytochrome c oxidase (ferrocytochrome c:oxygen oxidoreductase), solubilized complex
Test: cell-based or functional assay

Row | Binder | Activity in the cytochrome c oxidase reaction, % of WT
1 | B1 | 100%
2 | B2 | < 1%
